Test results reported in US20160280784A1, “Antibodies Directed to GPNMB and Uses Thereof” (Celldex Therapeutics, Inc., priority 2009, published 2016).

Columns and labels:
[1] = test system: patients with locally advanced or metastatic breast cancer; test: Phase I/II study of CDX-011, preliminary 18 patients: tumor response; assay type: in vivo, human
Experimental: (§1) There was no limit to the number of prior regimens.
(§2) For Phase I dose escalation studies, the starting dose was 1.34 mg/kg IV every three weeks (q3w). Sequential dose cohorts (n=3) were enrolled based on tolerability. The cap was set at 1.88 mg/kg IV q3w.

[2] = test system: patients with locally advanced or metastatic breast cancer; test: Phase I/II study of CDX-011, preliminary 18 patients: toxicity and dose escalation; assay type: in vivo, human
Experimental: as §1, §2
The toxicity results are shown below in Table 34. All treatment-emergent adverse events are shown in the table, regardless of attribution.

[3] = test system: GPNMB-expressing breast cancer cells; test: growth / killing of GPNMB-expressing breast cancer cells in vitro; assay type: cell-based
[4] = test system: patients with locally advanced or metastatic breast cancer; test: Phase II Simon Two-Stage study / Phase II dose: anti-tumor activity (RECIST); assay type: in vivo, human; conditions: for Median PFS: Phase II Dose 1.88 mg/kg
Experimental: (§3) For the Phase II Simon Two-Stage study, the primary endpoint was set at progression-free rate at 12 weeks. The following statistical assumptions were used p0=10%; p1=30%; α=β=0.10; first stage included sixteen patients; and if two or more patients were progression-free at 12 weeks, the total enrollment would increase to 25.
Additional measures of anti-tumor activity were evaluated for the patients in this further study.

melanoma = melanoma patients; cited from earlier work
[5] = test system: patients with locally advanced or metastatic breast cancer; test: Phase II study (n = 42): tolerability of CR011-vcMMAE (CDX-011); assay type: in vivo, human
Text: as §3
In particular, the treated patients (n=42) received a mean of 3.5 (range 1-8) cycles of treatment during this study. Four patients discontinued treatment due to adverse events (neuropathy, rash, dermatologic bullae and acute renal failure). Dose-escalation dose-limiting toxicities (DLTs) were limited to two cases of neuropathy (at the 1.34 mg/kg dose). After revision of the protocol to exclude pre-existing neuropathy ≧Grade 2, no further DLT occurred.

[6] = 18 patients, regardless of attribution
[7] = one patient with triple-negative disease, strongly positive stromal GPNMB expression
[8] = All Patients (n = 42), potentially related to CDX-011

Question: For glembatumumab vedotin [CDX-011], which tumor shrinkage ([1]; initial results from a phase I/II trial, metastatic breast cancer) is on record?
Answer: tumor shrinkage was observed

Question: And the confirmed partial response ([1]; of the 18 patients)?
Answer: one

Question: What about the “patients with at least a partial response” value ([1]; of the 18 patients) of the same substance?
Answer: three

Question: What about the tumor shrinkage observed ([1]; of the 18 patients (50%)) of the same substance?
Answer: 9 patients

Question: And the maximum tumor reduction ([1]; one patient, ER+/PR+/HER2+, partial response after two cycles, confirmed 6 weeks later, treatment for over 5 months)?
Answer: 42%

Question: And the “reduction in target lesions (partial response, CT)” value ([1]; one patient, ER+/PR+/HER2−, GPNMB positive biopsy, after two cycles)?
Answer: 51%

Question: What about the clinical outcome ([1]; one patient, triple negative, skull metastases, following two cycles, resolution of mental nerve paresis and discontinuation of analgesics) of the same substance?
Answer: marked clinical improvement

Question: And the “reduction in target lesions (partial response, CT)” value ([1]; one patient, triple negative, after four cycles)?
Answer: 34%

Question: What about the “tolerability in dose escalation” value ([2]; 1.88 mg/kg IV q3w) of the same substance?
Answer: tolerated

Question: And the “Alopecia, Total” value [2, 6]?
Answer: 9 (50%) n (%)

Question: And the “Anorexia, Grade 3” value [2, 6]?
Answer: 0 (0%) n (%)

Question: And the “Anorexia, Grade 4” value [2, 6]?
Answer: 0 (0%) n (%)

Question: What about the “Anorexia, Total” value [2, 6] of the same substance?
Answer: 5 (28%) n (%)

Question: And the “Any Event, Grade 3” value [2, 6]?
Answer: 10 (56%) n (%)

Question: What about the “Any Event, Grade 4” value [2, 6] of the same substance?
Answer: 0 (0%) n (%)

Question: What about the “Any Event, Total” value [2, 6] of the same substance?
Answer: 18 (100%) n (%)

Question: What about the “Constipation, Grade 3” value [2, 6] of the same substance?
Answer: 0 (0%) n (%)

Question: And the “Constipation, Grade 4” value [2, 6]?
Answer: 0 (0%) n (%)

Question: And the “Constipation, Total” value [2, 6]?
Answer: 6 (33%) n (%)

Question: And the “Cough, Grade 3” value [2, 6]?
Answer: 1 (6%) n (%)

Question: What about the “Cough, Grade 4” value [2, 6] of the same substance?
Answer: 0 (0%) n (%)

Question: And the “Cough, Total” value [2, 6]?
Answer: 6 (33%) n (%)

Question: What about the “Diarrhea, Grade 3” value [2, 6] of the same substance?
Answer: 0 (0%) n (%)

Question: What about the “Diarrhea, Grade 4” value [2, 6] of the same substance?
Answer: 0 (0%) n (%)

Question: And the “Diarrhea, Total” value [2, 6]?
Answer: 5 (28%) n (%)

Question: What about the “Dizziness, Grade 3” value [2, 6] of the same substance?
Answer: 0 (0%) n (%)

Question: And the “Dizziness, Grade 4” value [2, 6]?
Answer: 0 (0%) n (%)

Question: And the “Dizziness, Total” value [2, 6]?
Answer: 4 (22%) n (%)

Question: And the “Dysgeusia, Grade 3” value [2, 6]?
Answer: 0 (0%) n (%)

Question: What about the “Dysgeusia, Grade 4” value [2, 6] of the same substance?
Answer: 0 (0%) n (%)

Question: What about the “Dysgeusia, Total” value [2, 6] of the same substance?
Answer: 4 (22%) n (%)

Question: And the “Fatigue, Grade 3” value [2, 6]?
Answer: 1 (6%) n (%)

Question: What about the “Fatigue, Grade 4” value [2, 6] of the same substance?
Answer: 0 (0%) n (%)

Question: And the “Fatigue, Total” value [2, 6]?
Answer: 9 (50%) n (%)

Question: And the “Fever, Grade 3” value [2, 6]?
Answer: 0 (0%) n (%)

Question: What about the “Fever, Grade 4” value [2, 6] of the same substance?
Answer: 0 (0%) n (%)

Question: And the “Fever, Total” value [2, 6]?
Answer: 5 (28%) n (%)

Question: What about the “Nausea, Grade 3” value [2, 6] of the same substance?
Answer: 1 (6%) n (%)

Question: And the “Nausea, Grade 4” value [2, 6]?
Answer: 0 (0%) n (%)

Question: What about the “Nausea, Total” value [2, 6] of the same substance?
Answer: 8 (44%) n (%)

Question: What about the “Neuropathy, Grade 3” value [2, 6] of the same substance?
Answer: 2 (11%) n (%)

Question: And the “Neuropathy, Grade 4” value [2, 6]?
Answer: 0 (0%) n (%)

Question: And the “Neuropathy, Total” value [2, 6]?
Answer: 7 (39%) n (%)

Question: What about the “Neutropenia, Grade 3” value [2, 6] of the same substance?
Answer: 3 (17%) n (%)

Question: And the “Neutropenia, Grade 4” value [2, 6]?
Answer: 0 (0%) n (%)

Question: What about the “Neutropenia, Total” value [2, 6] of the same substance?
Answer: 5 (28%) n (%)

Question: What about the “Pain, Gastrointestinal, Grade 3” value [2, 6] of the same substance?
Answer: 1 (6%) n (%)

Question: And the “Pain, Gastrointestinal, Grade 4” value [2, 6]?
Answer: 0 (0%) n (%)

Question: What about the “Pain, Gastrointestinal, Total” value [2, 6] of the same substance?
Answer: 6 (33%) n (%)

Question: And the “Pain, Musculoskeletal, Grade 3” value [2, 6]?
Answer: 1 (6%) n (%)

Question: What about the “Pain, Musculoskeletal, Grade 4” value [2, 6] of the same substance?
Answer: 0 (0%) n (%)

Question: And the “Pain, Musculoskeletal, Total” value [2, 6]?
Answer: 5 (28%) n (%)

Question: And the “Pruritus, Grade 3” value [2, 6]?
Answer: 0 (0%) n (%)

Question: What about the “Pruritus, Grade 4” value [2, 6] of the same substance?
Answer: 0 (0%) n (%)

Question: What about the “Pruritus, Total” value [2, 6] of the same substance?
Answer: 3 (17%) n (%)

Question: What about the “Rash, Grade 3” value [2, 6] of the same substance?
Answer: 1 (6%) n (%)

Question: And the “Rash, Grade 4” value [2, 6]?
Answer: 0 (0%) n (%)

Question: What about the “Rash, Total” value [2, 6] of the same substance?
Answer: 11 (61%) n (%)

Question: What about the “Vomiting, Grade 3” value [2, 6] of the same substance?
Answer: 0 (0%) n (%)

Question: And the “Vomiting, Grade 4” value [2, 6]?
Answer: 0 (0%) n (%)

Question: What about the “Vomiting, Total” value [2, 6] of the same substance?
Answer: 7 (39%) n (%)

Question: What about the dose-limiting toxicity ([2]; first two patients enrolled at 1.34 mg/kg IV q3w, both had baseline neuropathy) of the same substance?
Answer: dose-limiting worsening of peripheral sensory neuropathy

Question: What about the “patients discontinued for an adverse event” value ([2]; of 18 patients treated, one for neuropathy and one for rash) of the same substance?
Answer: two

Question: And the “killing of GPNMB-expressing breast cancer cells” value [3]?
Answer: selectively killed

Question: What about the “growth of GPNMB-expressing breast cancer cells” value ([3]; in vitro) of the same substance?
Answer: effectively inhibits the growth

Question: What about the “Median PFS” value ([4]; all patients) of the same substance?
Answer: 9.1 weeks

Question: What about the “Median PFS” value ([4]; Expressing GPNMB) of the same substance?
Answer: 18.3 weeks

Question: And the “Median PFS” value ([4]; Triple-negative disease)?
Answer: 17.9 weeks

Question: What about the “outcomes by expression of GPNMB” value ([4]; heavily pretreated advanced breast cancer patients) of the same substance?
Answer: associated with improved outcomes

Question: And the “duration partial response was maintained” value [4, 7]?
Answer: ≥ 23 weeks

Question: And the “tumor shrinkage (partial response)” value [4, 7]?
Answer: 53%

Question: And the “patients without progression at 12 weeks (primary efficacy endpoint)” value ([4]; out of 26 patients)?
Answer: at least 9 patients

Question: What about the clinical activity (melanoma) of the same substance?
Answer: clinical activity

Question: What about the tolerability (melanoma) of the same substance?
Answer: well tolerated

Question: What about the tolerability ([5]; 1.88 mg/kg IV q3w, patients with advanced breast cancer) of the same substance?
Answer: well-tolerated

Question: What about the “Alopecia, Total” value [5, 8] of the same substance?
Answer: 14 (33%) n (%)

Question: What about the “Anemia, Total” value [5, 8] of the same substance?
Answer: 10 (24%) n (%)

Question: And the “Asthenia, Grade 3” value [5, 8]?
Answer: 2 (5%) n (%)

Question: And the “Asthenia, Total” value [5, 8]?
Answer: 3 (7%) n (%)

Question: What about the “Fatigue, Grade 3” value [5, 8] of the same substance?
Answer: 2 (5%) n (%)

Question: What about the “Fatigue, Total” value [5, 8] of the same substance?
Answer: 20 (48%) n (%)

Question: What about the “Nausea, Grade 3” value [5, 8] of the same substance?
Answer: 2 (5%) n (%)

Question: What about the “Nausea, Total” value [5, 8] of the same substance?
Answer: 19 (45%) n (%)

Question: And the “Neuropathy, Grade 3” value [5, 8]?
Answer: 1 (2%) n (%)

Question: What about the “Neuropathy, Total” value [5, 8] of the same substance?
Answer: 10 (24%) n (%)

Question: And the “Neutropenia, Grade 3” value [5, 8]?
Answer: 8 (19%) n (%)

Question: And the “Neutropenia, Total” value [5, 8]?
Answer: 12 (29%) n (%)

Question: And the “Rash, Grade 3” value [5, 8]?
Answer: 2 (5%) n (%)

Question: And the “Rash, Total” value [5, 8]?
Answer: 19 (45%) n (%)

Question: And the “Vomiting, Grade 3” value [5, 8]?
Answer: 1 (2%) n (%)

Question: What about the “Vomiting, Total” value [5, 8] of the same substance?
Answer: 12 (29%) n (%)

Question: And the “serious adverse events potentially related” value ([5]; all single cases at the Phase II dose)?
Answer: intractable vomiting/nausea, dermatologic bullae and acute renal failure

Question: What about the “dose-escalation dose-limiting toxicities (DLTs)” value ([5]; at the 1.34 mg/kg dose) of the same substance?
Answer: two

Question: And the “patients discontinued treatment due to adverse events” value ([5]; n=42, neuropathy, rash, dermatologic bullae and acute renal failure)?
Answer: Four

Question: What about the “most common adverse event reported” value ([5]; patients treated with CR011-vcMMAE) of the same substance?
Answer: Rash
